Measured values reported in US20140235820A1, “METHODS AND COMPOSITIONS FOR MODULATING THE Wnt PATHWAY” (Genentech, Inc., priority 2010, published 2014).

Biological target: T1, LRP6 (Homo sapiens, UniProt O75581)
T1 construct: made in house; host or cells: Tni insect cells (baculovirus, secreted)
T1 sequence (O75581 20-1253): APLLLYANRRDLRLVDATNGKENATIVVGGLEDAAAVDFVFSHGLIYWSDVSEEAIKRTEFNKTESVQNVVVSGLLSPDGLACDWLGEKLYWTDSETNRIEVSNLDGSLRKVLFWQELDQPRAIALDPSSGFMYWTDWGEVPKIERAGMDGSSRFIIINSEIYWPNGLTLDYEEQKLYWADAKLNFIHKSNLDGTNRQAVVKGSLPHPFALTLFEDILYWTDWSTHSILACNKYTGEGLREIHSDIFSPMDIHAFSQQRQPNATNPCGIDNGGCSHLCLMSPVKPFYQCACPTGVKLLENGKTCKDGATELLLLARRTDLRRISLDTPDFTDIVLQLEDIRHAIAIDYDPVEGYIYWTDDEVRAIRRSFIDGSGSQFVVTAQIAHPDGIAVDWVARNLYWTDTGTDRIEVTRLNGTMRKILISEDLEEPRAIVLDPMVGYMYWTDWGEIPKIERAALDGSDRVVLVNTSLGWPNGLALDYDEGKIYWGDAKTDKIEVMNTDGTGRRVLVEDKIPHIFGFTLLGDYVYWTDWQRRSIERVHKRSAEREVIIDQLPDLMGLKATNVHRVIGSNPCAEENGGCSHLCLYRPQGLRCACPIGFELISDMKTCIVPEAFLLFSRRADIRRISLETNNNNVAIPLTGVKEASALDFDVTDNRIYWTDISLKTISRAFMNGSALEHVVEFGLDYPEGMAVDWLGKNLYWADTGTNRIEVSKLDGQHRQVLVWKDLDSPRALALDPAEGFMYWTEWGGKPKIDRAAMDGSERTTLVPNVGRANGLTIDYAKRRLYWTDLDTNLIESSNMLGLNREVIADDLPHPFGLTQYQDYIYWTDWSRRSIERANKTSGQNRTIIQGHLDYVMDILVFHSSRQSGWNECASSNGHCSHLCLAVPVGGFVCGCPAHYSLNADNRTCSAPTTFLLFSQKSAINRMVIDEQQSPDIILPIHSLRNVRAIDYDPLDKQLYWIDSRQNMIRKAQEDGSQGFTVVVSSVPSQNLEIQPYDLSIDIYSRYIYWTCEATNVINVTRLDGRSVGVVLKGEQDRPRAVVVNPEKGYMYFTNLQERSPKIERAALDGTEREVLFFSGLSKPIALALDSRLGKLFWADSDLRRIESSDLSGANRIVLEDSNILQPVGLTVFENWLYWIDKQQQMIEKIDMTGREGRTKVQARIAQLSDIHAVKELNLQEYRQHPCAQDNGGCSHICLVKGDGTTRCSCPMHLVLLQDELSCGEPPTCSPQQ
Experiment: Biolayer interferometry binding to any LRP6 construct tested
Experimental: Binding kinetics were measured by biolayer interferometry using an Octet Red instrument (ForteBio) as previously described (11). Streptavidin (SA) biosensors were loaded with biotinylated hLRP6 in 50 mMTris, pH 8, 300 mM NaCl, 5% (v/v) glycerol, and 0.05% (w/v) Triton X-100. The loaded biosensors were washed in the same buffer before carrying out association and dissociation measurements for the indicated times. The Kd of each interaction was determined using steady state-analysis through the Octet Red software v6.3. Each reported value represents an average of three or more experiments at different concentrations, with a fitted experimental curve for which the square of the correlation coefficient (R^2) is above 0.96.
The interaction of the different Dkks and sclerostin with various domains of LRP6 was measured using a biolayer interferometry assay (11). Purified receptors contained individual β-propeller-EGF-like units (E1, E2, or E4), two β-propellers (E1E2 or E3E4), or four β-propellers (E1E4))—as follows:
Human LRP6: construct E1E4-amino acids A20-Q1253 of LPR6; construct E1E2-amino acids A20-E631 of LPR6; construct E3E4 amino acids E631-Q1253 of LPR6; construct E1-amino acids A20-D325 of LPR6; construct E2-amino acids […]-E631 of LPR6; construct E4-T933-Q1253. The individual LRP6 β-propeller E3 could not be expressed.

Question: Which “binding to any LRP6 construct tested” value does the source give for “Dkk3: Dickkopf 3, carrier-free protein from R&D Systems” here?
Answer: The value was “failed to bind”.
